Biological target: PAR-5 (UniProt P41932)
Assay: IP anti-GFP, blot anti-PAR-5
Conditions: reference: wild type ATGL-1::GFP; sites S303

binding against the reference: weaker
Substance: ATGL-1 (from UniProt Q11186) ATGL-1(S303A)::GFP
